# Measured values from US20200270347A1 (Hoffmann-La Roche, published 2020).
# Where a chain is given by its changes, count along the chain named. Names may count otherwise.
# B1: EGFRvIII TCB CD3opt (EGFRvIII binder P063.056) (bispecific antibody, human IgG1, kappa, L234A L235A)
# heavy 1: not shown
# heavy 2: EVQLVQSGAEVKKPGESLKISCKGSGYSFDSYWIAWVRQMPGKGLEWMGVIHPYDSDTRYSPSFQGQVTISADKSISTAYLQWSSLKASDTAMYYCARVSRSSYAFDYWGQGTLVTVSSASTKGPSVFPLAPSSKSTSGGTAALGCLVEDYFPEPVTVSWNSGALTSGVHTFPAVLQSSGLYSLSSVVTVPSSSLGTQTYICNVNHKPSNTKVDEKVEPKSCDKTHTCPPCPAPEAAGGPSVFLFPPKPKDTLMISRTPEVTCVVVDVSHEDPEVKFNWYVDGVEVHNAKTKPREEQYNSTYRVVSVLTVLHQDWLNGKEYKCKVSNKALGAPIEKTISKAKGQPREPQVCTLPPSRDELTKNQVSLSCAVKGFYPSDIAVEWESNGQPENNYKTTPPVLDSDGSFFLVSKLTVDKSRWQQGNVFSCSVMHEALHNHYTQKSLSLSP
# light 1: not shown
# light 2: EVQLLESGGGLVQPGGSLRLSCAASGFQFSSYAMNWVRQAPGKGLEWVSRIRSKYNNYATYYADSVKGRFTISRDDSKNTLYLQMNSLRAEDTAVYYCVRHTTFPSSYVSYYGYWGQGTLVTVSSASVAAPSVFIFPPSDEQLKSGTASVVCLLNNFYPREAKVQWKVDNALQSGNSQESVTEQDSKDSTYSLSSTLTLSKADYEKHKVYACEVTHQGLSSPVTKSFNRGEC
# notes: 2+1 IgG CrossFab, inverted, with charge modifications; also called EGFRvIII TCB P063.056 with CD3opt; 2+1 format
# B2: EGFRvIII TCB CD3orig (EGFRvIII binder P063.056) (bispecific antibody, human IgG1, kappa, L234A L235A)
# heavy 1: not shown
# heavy 2: B1 heavy 2
# light 1: not shown
# light 2: B1 light 2 with Q28T, S31T, T102G, T103N, P105G, S106N, Y111W, Y112F, G113A
# notes: 2+1 IgG CrossFab, inverted, with charge modifications; also called EGFRvIII TCB P063.056 with CD3orig
# B3: EGFRvIII antibody P056.021 IgG1 PGLALA (antibody, V domains shown)
# VH: EVQLVQSGAEVKKPGESLKISCKGSGYSFDSYWIAWVRQMPGKGLEWMGVIHPYDSDTRYSPSFQGQVTISADKSISTAYLQWSSLKASDTAMYYCARVSRSSYAFDYWGQGTLVTVSS
# VL: not shown
# notes: Human IgG1 with P329G L234A L235A; also called P056.021 (parental)
# B4: EGFRvIII TCB P056.021 (CD3orig) (bispecific antibody, V domains shown)
# VH 1: B3 VH
# VL 1: not shown
# VH 2: not shown
# VL 2: QAVVTQEPSLTVSPGGTVTLTCGSSTGAVTTSNYANWVQEKPGQAFRGLIGGTNKRAPGTPARFSGSLLGGKAALTLSGAQPEDEAEYYCALWYSNLWVFGGGTKLTVL
# notes: also called parental EGFRvIII TCB P056.021; P056.021 EGFRvIII TCB with CD3orig
# Legend:
# [1] = biological target: T1, EGFRvIII-ECD avi his (human); assay: SPR, TCB captured with anti-Fc antibody, EGFRvIII-ECD avi his as analyte, 1:1 fit; CD3opt
# T1 construct: Extracellular domain of human EGFRvIII fused to an Avi-tag and a His-tag at the C-terminus; the entry is the whole construct; also called recombinant EGFRvIII; EGFRvIII antigen
# [2] = biological target: T2, heterodimer of human CD3 delta and CD3 epsilon ectodomains fused to a human Fc domain with knob-into-hole … (human); assay: SPR, TCB captured with anti-PGLALA antibody, CD3 antigen as analyte, 1:1 Langmuir; CD3opt; human CD3
# T2 construct: Each entry is the whole fusion chain (ectodomain, stalk, Fc, Avi-tag); also called recombinant CD3; recombinant human CD3
# [3] = biological target: T2, heterodimer of human CD3 delta and CD3 …; assay: SPR, relative active concentration after stress
# [4] = biological target: T3, EGFRvIII expressed on the cell surface (CHO-EGFRvIII, DK-MG, U87MG-EGFRvIII cells) (human, UniProt P00533 298-1210); assay: flow cytometry on U87MG-EGFRvIII cells, fluorescently labelled anti-human Fc secondary antibody
# T3 construct: The cell line of each result is named under assay; Species is stated for the U87 transfectant (human EGFRvIII protein) and the entry; also called EGFRvIII positive cells
# [5] = biological target: T4, heterodimer of cynomolgus CD3 delta and CD3 epsilon ectodomains fused to a human Fc domain with … (cynomolgus); assay: SPR, TCB captured with anti-PGLALA antibody, CD3 antigen as analyte, 1:1 Langmuir; CD3opt; cynomolgus CD3
# T4 construct: Each entry is the whole fusion chain; also called Cynomolgus CD3 epsilon stalk-Fc(knob)-Avi / Cynomolgus CD3 delta stalk-Fc(hole)-Avi
# [6] = biological target: T1, EGFRvIII-ECD avi his; assay: SPR, TCB captured with anti-Fc antibody, EGFRvIII-ECD avi his as analyte, 1:1 fit; CD3orig
# [7] = biological target: T2, heterodimer of human CD3 delta and CD3 …; assay: SPR, TCB captured with anti-PGLALA antibody, CD3 antigen as analyte, 1:1 Langmuir; CD3orig; human CD3
# [8] = biological target: T3, EGFRvIII expressed on the cell surface …; assay: flow cytometry on U87MG-EGFRvIII cells, IgG PGLALA
# [9] = biological target: T1, EGFRvIII-ECD avi his; assay: SPR, ECD antigen captured with anti-His, single injection of antibody at 500 nM
# [10] = biological target: EGFRwt ECD antigen (His-tagged, captured with anti-His) (human, UniProt P00533 25-645); assay: as above
# [11] = biological target: T5, wild-type EGFR on MKN-45 cells (human, UniProt P00533 25-1210); assay: flow cytometry on MKN-45 cells (wild-type EGFR)
# T5 construct: MKN-45 is the wild-type EGFR line used to exclude crossreactivity; also called EGFRwt
# [12] = biological target: T3, EGFRvIII expressed on the cell surface …; assay: flow cytometry on CHO-EGFRvIII cells, IgG
# [13] = biological target: T1, EGFRvIII-ECD avi his; assay: SPR, PGLALA IgG captured with anti-PGLALA antibody, EGFRvIII-ECD avi his as analyte, 1:1 Langmuir, 25° C.
# [14] = biological target: T3, EGFRvIII expressed on the cell surface …; assay: flow cytometry on CHO-EGFRvIII cells, TCB
binder,measurement,setting,value
B1,Kd,[1],6 nM
same,Kd,[2],30 nM
same,"binding activity to CD3 after 2 weeks at pH 7.4, 37° C., relative to 2 weeks at pH 6, -80° C.",[3],> 90%
same,binding result,[4],binds
same,Kd,[5],20 nM
B2,Kd,[6],6 nM
same,Kd,[7],40 nM
same,EC50 (read off the curve),[4],~9 nM
B3,EC50 (read off the curve),[8],~4 nM
same,response units,[9],> 50 RU
same,response units,[10],< 5 RU
same,binding result,[11],no binding (tested: about 140 nM)
same,EC50,[12],16.5 nM
same,Kd,[13],35 nM
B4,EC50,[14],13 nM
same,binding result,[11],no binding (tested: about 140 nM)
